Consider 41 sequences from the nanobody polyreactivity screen of Harvey et al. (2022).

The data set in a line: yeast display, Sf9 membrane polyspecificity reagent, FACS + sequencing; frameworks hold sequencing errors. The method in brief: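 In a synthetic yeast display library (Saccharomyces cerevisiae BJ5465), nanobody expression was induced with galactose for 36–48 hours. FACS gates were set low and high (top ~1%) using anti-HA fluorescence for expression and streptavidin fluorescence for binding of the Sf9 membrane reagent. Each polyreactivity label is drawn from the gate of origin.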
Regarding “QVQLVESGGGLVQAGGSVRLSCAASGFIFWYSAMGWYRQAPGKERELVAAISGTGGTTYYADSVKGRFTISRDNAKNTVYLQMNSLKPEDTAVYYCNFRYDSRRTAIGYAYWGQGTQETVSS”, the “polyreactivity (PSR sort gate)” value is recorded as “low polyreactivity”.
The same measure for “QVQLVESGGGLVQAGGSVRLSCAASGRIFRHNTRGWYRQAPGKERELVAAITFSDGNTYYADSVKGRFTISRDNAKNTVYLQMNSLKPEDTAVYYCNAGYSYGVSYAEGGYWGQGTQVTVSS”: “low polyreactivity”; for “QVQLVESGGGLVQAGGSVRLSCAASGRTFYYNAMGWYRQAPGKERELVAAISWSGGSTYYADSVKGRFTISRDNAKNTVYLQMNSLKPEDTAVYYCAARSRYYHFDYWGQGTQVTVSS”: “high polyreactivity”; for “QVQLVESGGGLVQAGGSVRLSCAASGSIFTGYAMGWYRQAPGKERELVAAISRSSGSTYYADSVKGRFTISRDNAKNTVYLQMNSLKPEDTAVYYCNAYSKYRSGRLYWMGYWGQGTQVTVSS”: “high polyreactivity”.
The same measure for “QVQLVESGGGLVQAGGTLLLTCAASGFIFDIYAMGWSRPAPGKERELVAAITWNSGSTHYADSVKGRFTISRDTAKNTVYLQMNRLKPEDTAVYYCAADEVTYAYYPYDYWGQGTQVTVSS”: “low polyreactivity”; for “QVQLVESGGGLVQAGGTLRISCAASGITINYNAMGWYRQAPGKEMELVAAITRSGGSTNYADSVKGRFTISRDNAKNTVYLQMNSLKPEDTAVYYCAKGHLYAGHRHYAYGYWGQGTQVTVSS”: “low polyreactivity”.
The same measure for “QVQLVESGGGLVQAGGTLRISCAASGSIFWYYAMGSYRQAPGKERELVAAISKSGGSTYYADSVKVRFTISRDNAKNTVYLQMNSLKQEDTAVYYCAKYGPVIDGVDYWGQGTQVTVSS”: “low polyreactivity”.
Take “QVQLVESGGGLVQAGGTLRLICAASGSTLYWNAMGLYRQAPGKQRELVAGISIGGRTNYADSVKGRFTISRDNAKNTVYLQMISLKPEDTAVYYCNAENTYLGSRYRPYNYWGQGTQVTVSS”: the “polyreactivity (PSR sort gate)” value was “low polyreactivity”.
The same measure for “QVQLVESGGGLVQAGGTLRLICAATGRTFDFNAMGWYRQAPGKERELVAAITESGGSTYYADSVKGRFTISRDNAKNTVYLQMNSLKPEDTAVYYCAVAGNYYRDYPEVSYFSIYNYWGQGTQVTVSS”: “low polyreactivity”.
The same measure for “QVQLVESGGGLVQAGGTLRLSCAASGFIFDWNTKGWYRQAPGKERELVAAITESSGSTYYADSVKGRFTISRDNAKNTVYLQMNSLKPEDTAVYYCAAELDVYVSIGSRFHFDYWGQGTQVTVSS”: “low polyreactivity”.
The same measure for “QVQLVESGGGLVQAGGTLRLSCAASGFIFENYAMGWYRQAPGKERELVAAISSSGGSTYYADSVKGRFTISRDNAKNTVYLQMNSLKPEDTAVYYCAKDYAPSATKLHYWGQGTQVTVSS”: “low polyreactivity”.
For “QVQLVESGGGLVQAGGTLRLSCAASGFLFVFYDMGWYRQAPAKERELVAGITRNDGSTYYADSVKGRFKISRDNAKNTVYLLMNSLKPEDTAVYYCAADRVRRNDKLAYDYWGQGTQVTVSS”, the “polyreactivity (PSR sort gate)” value is reported as “low polyreactivity”.
The same measure for “QVQLVESGGGLVQAGGTLRLSCAASGFTFGYYAMGWYRPAPGKERELVAAISSRGGTTYYADSVKGRFTISRDNAKNTVYLQMNSLKPEDTAVYYCAKDSFRNIYNYWGQGTQVTVSS”: “high polyreactivity”; for “QVQLVESGGGLVQAGGTLRLSCAASGGIFSYAMGWYRQAPGKERELVADINSDGSTTYADSVKGRFTISRDNAKNTVYLQMNSLKPEDTAVYYCAADTYFWSYSYNYYYWGQGTQVTVSS”: “low polyreactivity”.
The same measure for “QVQLVESGGGLVQAGGTLRLSCAASGIIFHWYAMGWYRQAPGKERELVAAITQSGGSTSYADSVKGRFTISRDNAKNTVYLQMNSLIPEDTAVYYCNAREVRDEYNYWGQGTQVTVSS”: “low polyreactivity”; for “QVQLVESGGGLVQAGGTLRLSCAASGITLKLYVMGWYRQAPGKERELVAAISRRGGSTYYADSVKGRFTLSRDNAKYTVYLQMISLKPEDTAVYYCAKDGTQYERKDPAYGYWGQGTQVTVSS”: “high polyreactivity”.
The same measure for “QVQLVESGGGLVQAGGTLRLSCAASGLIFKKYTMGWYRQAPGKERELVASISKSGGSTYYADSVKGRFTISRDNAKNTVYLQMISLKPEESAVYYCNRVTHYIRFDYWGQGTQVTVSS”: “low polyreactivity”; for “QVQLVESGGGLVQAGGTLRLSCAASGLIFVRYAMGWYRQAPGKERELVATITDGGSKYYADSVKGRFTISRDNAKNTVYLQMNSLKPEDTAVYYCNKDRVSVRYEYWGQGTQVTVSS”: “low polyreactivity”; for “QVQLVESGGGLVQAGGTLRLSCAASGRIFGPYAMGWYRQAPWKERELVAAISFSGSGTYYADSVKGRFTISRDNAKNTVYFQMNSLKAEDTAVYYCAATSRKIVAFDHDYWGQGTQVTVSS”: “low polyreactivity”.
Consider “QVQLVESGGGLVQAGGTLRLSCAASGRTFRQNAMGWYRQAPGKERELVAAISVNGGRTYYADSVKGRFTITRDNAKITVYLQMNSLKPEDTAVYYCAAESYRIPRRSGYDYWGQGTQVTVSS”, for which the “polyreactivity (PSR sort gate)” value is recorded as “high polyreactivity”.
The same measure for “QVQLVESGGGLVQAGGTLRLSCAASGSIFAHYTMGWYRQAPGKERELVAVISRSGARTYYADSVKGRFTISRDNAKNTVYLQMNSLKPEDTAVYYCAADRTLEEDYWGQGTQVTVSS”: “low polyreactivity”.
The same measure for “QVQLVESGGGLVQAGGTLRLSCAASGSIFTHYAMGWYRQAPGKERELVAAISRRGGSTYYADSVKGRFTNSRDNAKNTVYLQMNSLKPEDSAVYYCAKSPDTAKEYDYWGQGTQVTVSS”: “high polyreactivity”.
The same measure for “QVQLVESGGGLVQAGGTLRLSCAASGSTFGYPMGGYRQSPGKERELVAAMTSTGGSTYYADSVKGRFTISRDNAKITVYLQMNSQKPEDTAVYYCAADAYWIRSRFLYRIRYNYWGLGTQVTVSS”: “high polyreactivity”; for “QVQLVESGGGLVQAGGTLRLSCAASGSTFGYYTMGWYRQAPGKERELVAAITWSGGSTYYADSVKGRFTISRDNAKKTVYLQMNSLKAEDSAVSYCAADDYWTPFGYSGQGTQVTVSS”: “low polyreactivity”.
“QVQLVESGGGLVQAGGTLRLSCAASGSTFIGNAMGWYIQAPGKERELVAAITRSGGSTFYADSVKGRFTISRDNAKNTVYLQMNSLKPEDTAVYYCAARNGAYPALKEGDYWGQGTQVTVSS”: the “polyreactivity (PSR sort gate)” value is reported as “high polyreactivity”.
Regarding “QVQLVESGGGLVQAGGTLRLSCAASGSTFTGNAMGWYRQAPGKERELVASISTGGSTNYADSVKGRFTISRDNAKNTVYLQMNSLKPEDTAVYYCAKRIRYNWTFDDWGQGTQVTVSS”, the “polyreactivity (PSR sort gate)” value is reported as “low polyreactivity”.
The same measure for “QVQLVESGGGLVQAGGTLRLSCAASGSTFYRYAMGWYRTAPGKERELVATITRSGGSTYYADSVKGRFTISRDNAKNTVYLQMNSLKPEDTAVYYCAARGWYKSDYWGQGTQVTVSS”: “low polyreactivity”; for “QVQLVESGGGLVQAGGTLRLSCAASGSTFYSYAMGWYRQAPGKERELVAAISGRGGTTYYADSVKGRFTISRDNAKNTVYLQMNSLKPEDTAVYYCAAEGWDWWTDDDYWGQGTQVTVSS”: “high polyreactivity”.
The same measure for “QVQLVESGGGLVQAGGTLRLSCAASGVIFKVYGMRWYRQAPGKERELVAAISWTTGGTYYADSVKGRFTISRDNAKNTVYLQMNSLKPEDTAVYYCNAPSWYYSGVRYDYWGQGTQVTVSS”: “high polyreactivity”; for “QVQLVESGGGLVQAGGTLRLSCAASRITFWYYARGWYIQAPGKERELVAAITSGGSTYYADSVKGRFTISRDNAKNTVYLQMNSLKPEDTAVYYCAKDSVWGAKNLTSYKYYYWGQGTQVTGSS”: “low polyreactivity”.
The same measure for “QVQLVESGGGLVQAGGTLRLSCADSGSTIRNYAMGWYRQAPGKERELVATISASGGSTYYADSVKGRFTISRDNAKNTVYLQLNSLKPEDTAVYYCNAVVKLWGLVIPPGDYDYWRQGTQVTVSS”: “high polyreactivity”.
In the case of “QVQLVESGGGLVQAGGTLRLSCAPSARTFDRNAMGWYRQAPGKERELVASISWVGTSTYYADSVKGRFTISRDNAKNTVYLQMNSLKPDDSAVYYCAARRVKYISLDYWGQGTQVTVSS”, the “polyreactivity (PSR sort gate)” value was “low polyreactivity”.
With “QVQLVESGGGLVQAGGTLRLSCGASGGTFYLYTMGWYRPAPGKERELVAAISRGGSTNYADSVKGRFTISRDNAKNTVYLLMNSLIPEDTAVFYCAAVRSTGFRYYYADEYDYWGQGTQVTVSS”, the “polyreactivity (PSR sort gate)” value is given as “low polyreactivity”.
The same measure for “QVQLVESGGGLVQAGGTLRLSCGASGLIFTSNAMGWYRQAPGKESELVAAISNTGGSTYYADSVKGRFTISRDNSKNTVYLQMNSLKPEDTAVYYCAVDPAAGLTNVFYLKYFGYDFWGQGTQVTVSS”: “low polyreactivity”; for “QVQLVESGGGLVQAGGTLRLSCPASGRNILGYAMGWYRPAPGKERELVAALRRSGGHTFYADSVKGRFTISRDNAKNRVYFQMNSLKPEDTAVYYCAASTSGAIRRDGFWGQGTQVSVSS”: “low polyreactivity”; for “QVQLVESGGGLVQAGGTLRLTCAASGSIFSAYAMGWYRQEPGKEREFVAAITRRGGNTYYADSVKGRFTISRDNAKNTVYVQMNSLKPEDTAVYYCAAVAGGGPFDYWGQGTQVTVSS”: “low polyreactivity”.
The same measure for “QVQLVESGGGLVQAGRILRLSCAASGRTFDSNAMGWYRQAPGKERELVAAISYGGGTTHYADSVKGRFTISRDNAKNTVYLQMNSLKPEYTAVYYCSADPEHLCESVTIGEYDYWGQGTQVTLSS”: “low polyreactivity”; for “QVQLVESGGGLVQAGRSHRLSFAASGFTLKGYAMGWYRQAPGKDRELVAAISWNGGRTYYADSVKGRFTISRDNAKNTVYLQMNSLKPEVTAVYYCAAVYRFYSPTKYTYDYWGQGTQVTVSS”: “high polyreactivity”; for “QVQLVESGGGLVQAGRSLLLICAASGSTFAYYAMGWYRQAPGKERELVAAINYRATRTYYADSVKGRFTISRDNAKNTVYLQMNSLKPDDTAVDYCIAEPAYYRSNRWPRFEYWGQGTQVTVSS”: “high polyreactivity”.
For “QVQLVESGGGLVQAGRSLRISCAASGYTFIYYPMGWYRPAPGKERELVATISIDGSTNYADSVKGRFTISRDNAKNTVYLQMNILKPEDTAVYYCNLERYEDYDYWGQGTQVTVSS”, the “polyreactivity (PSR sort gate)” value is “high polyreactivity”.
As to “QVQLVESGGGLVQAGRSLRLSCAASGITFGRNTMGWYRQAPGKERELVAAIDSGGNTYADSVKGRFTISRDNAKNTVYLQMNSLKPEDTAVYYCAVDGGEFSSYGYWGQGTQVTVSS”, the “polyreactivity (PSR sort gate)” value was “low polyreactivity”.
